The source of these data is PMC3794784, “The Role of Initial Oligomers in Amyloid Fibril Formation by Human Stefin B” (International Journal of Molecular Sciences, 2013).

“And” between values parts separate entries of the source, which are not always exact repeats. Identical values can stand only once.

Data set [1] deals with the molecule itself. As to the kind of experiment: native MS; ESI-Q-TOF MS of SEC fractions, stefin B in 0.02 M ammonium acetate, pH 7.5, injected directly, positive mode.
Data set [2] concerns the molecule itself. Description: SEC; time course started from SEC-purified monomers, dimers, tetramers or higher-order oligomers; pH 5.8 (0.1 M phosphate buffer, 0.15 M NaCl, 9% (v/v) TFE, 25 °C); an aliquot every hour on Superdex 75; tetramer to dimers.
Data set [3] concerns the molecule itself. As to the kind of experiment: SEC; concentration dependence (34, 75, 100 μM), started from the oligomer mixture; 0.02 M ammonium acetate, pH 7.5, 0.15 M NaCl, 9% (v/v) TFE, 50 °C, 300 rpm, 5 h; aliquots on Superdex 75; dimer to monomers, Kd = [M]^2/[D].
Data set [4] concerns the molecule itself. Description: SEC; concentration dependence (4, 9, 34, 75, 100 μM), started from the oligomer mixture; 0.1 M phosphate buffer, pH 5.8, 0.15 M NaCl, 9% (v/v) TFE, 25 °C, 300 rpm, 5 h; aliquots on Superdex 75; tetramer to dimers, Kd = [D]^2/[T].
Data set [5] concerns the molecule itself. As to the kind of experiment: SEC; oligomers isolated on Superdex 75 and then loaded on Superdex 200; room temperature; 0.01 M phosphate buffer, pH 7.0, 0.15 M NaCl (0.02 M ammonium acetate, pH 7.5 for ESI MS samples).
Data set [6] deals with the molecule itself. Description: SEC; pH dependent transitions started from separated tetramers or higher-order oligomers; 34 μM protein, 2 h at 23 °C at pH 4.8, 5.8 or 7.0, 0.15 M NaCl, 9% (v/v) TFE.

B1: Recombinant human stefin B (S3E31) (natural protein, UniProt P04080 1-98, looked up)
chain: MMSGAPSATQPATAETQHIADQVRSQLEEKENKKFPVFKAVSFKSQVVAGTNYFIKVHVGDEDFVHLRVFQSLPHENKPLTLSNYQTNKAKHDELTYF
notes: human stefin B (product of the cystatin B gene), a globular protein of 98 amino acid residues; variant S3E31: Ser at position 3 instead of Cys, Glu at position 31; also called cystatin B
As for B1, the “stoichiometry N” value in data set [1] was 10 and 8; in data set [5] it was 2 and 4; in data set [6] it was 6 and 3. Further, the koff in data set [2] worked out at 0.0001 s⁻¹. Further, the Ka in data set [3] was 612000 M⁻¹; in data set [4] it was 3080 M⁻¹. Besides, the Kd in data set [3] was 1630 ± 310 nM; in data set [4], 325 ± 180 µM.
